Assay results from US20080161234A1, “Composition Comprising Lactic Acid and Lactoferrin” (priority 2004, published 2008).
“Also recorded” adds a separate entry of the source.

What was measured:
Format in all cases: cell-based
C. albicans (ATCC 64549) = assay: Microbicidal microplate assay (viable counts), C. albicans
Description: The bacterial strains S. aureus 1800 (CCUG 1800), E. coli 06, and the yeast C. albicans (ATCC 64549) have been used in the microplate assay. All microorganisms were cultured in brain heart infusion medium (BHI) on a shaker over night at 37° C. A volume of the culture was transferred to a new tube with BHI and incubated for two more h on the shaker. The bacteria were harvested in the log phase, washed once and thereafter suspended in the broth used for the microplate assay. The suspension was adjusted spectrophotometrically and diluted to a concentration of approximately 4×10^6 cells per ml at 650 nm. Washed cells were suspended in 0.2% BP (pH 7.0) or BHI medium diluted 1/10 (0.34%, pH 6.7-6.9) (Difco, USA). The concentration of bacterial or fungal cells was spectrophotometrically adjusted. LF or peptide, serially diluted in BHIdil or BP by twofold steps (unless otherwise stated), were added in triplicate to the wells of a microtiterplate (200 ul per well). The bacterial or yeast cell solutions were added in 10 ul volumes to give a final concentration of approximately 2×10^5 cells per ml. The concentration of the stock solution was always checked by viable counts. The microplate was incubated at 37° C. in a humid chamber for 2 h unless otherwise stated. Five ul were taken from each well and added as a drop onto a blood agar plate and incubated over night at 37° C. In some experiments more thorough viable counts were performed and the killing was expressed as remaining colony forming units in relation to the inoculum. The lower limit for detection of microorganisms was 200 CFU/ml. The antimicrobial activity of human LF was analysed by the microbicidal assay described above. Different microbes such as C. albicans, E. coli and S. aureus were analysed with respect to their survival in lactate (not containing the inert gel base, which makes the gel unsuitable for the microbicidal assay) containing LF. […] LF was incubated together with various concentrations of lactate diluted in 0.2% bactopeptone and C. albicans for 2 h. Thereafter each solution was analysed for viable counts.

E. coli 06 = assay: Microbicidal microplate-droplet assay, E. coli; settings: 1 mg/ml, lactate 0.2% and lactate free solution, 2 h
Description: The bacterial strains S. aureus 1800 (CCUG 1800), E. coli 06, and the yeast C. albicans (ATCC 64549) have been used in the microplate assay. All microorganisms were cultured in brain heart infusion medium (BHI) on a shaker over night at 37° C. A volume of the culture was transferred to a new tube with BHI and incubated for two more h on the shaker. The bacteria were harvested in the log phase, washed once and thereafter suspended in the broth used for the microplate assay. The suspension was adjusted spectrophotometrically and diluted to a concentration of approximately 4×10^6 cells per ml at 650 nm. Washed cells were suspended in 0.2% BP (pH 7.0) or BHI medium diluted 1/10 (0.34%, pH 6.7-6.9) (Difco, USA). The concentration of bacterial or fungal cells was spectrophotometrically adjusted. LF or peptide, serially diluted in BHIdil or BP by twofold steps (unless otherwise stated), were added in triplicate to the wells of a microtiterplate (200 ul per well). The bacterial or yeast cell solutions were added in 10 ul volumes to give a final concentration of approximately 2×10^5 cells per ml. The concentration of the stock solution was always checked by viable counts. The microplate was incubated at 37° C. in a humid chamber for 2 h unless otherwise stated. Five ul were taken from each well and added as a drop onto a blood agar plate and incubated over night at 37° C. In some experiments more thorough viable counts were performed and the killing was expressed as remaining colony forming units in relation to the inoculum. The lower limit for detection of microorganisms was 200 CFU/ml. The antimicrobial activity of human LF was analysed by the microbicidal assay described above. Different microbes such as C. albicans, E. coli and S. aureus were analysed with respect to their survival in lactate (not containing the inert gel base, which makes the gel unsuitable for the microbicidal assay) containing LF.

L. gasseri = assay: Survival of L. gasseri in lactate with LF; settings: rHLF 2 mg/ml in lactate, 2 h of incubation
Description: (§1) L. gasseri and L. jensenii were cultured on chocolate-agar plates for 24 h in 5% CO2/95% air. They were thereafter harvested and added to BHI (0.34%). After washing the bacterial solutions were adjusted spectrophotometrically and diluted to 8×10^6 bacteria/ml.
(§2) Washed cells were suspended in 0.2% BP (pH 7.0) or BHI medium diluted 1/10 (0.34%, pH 6.7-6.9) (Difco, USA). The concentration of bacterial or fungal cells was spectrophotometrically adjusted. LF or peptide, serially diluted in BHIdil or BP by twofold steps (unless otherwise stated), were added in triplicate to the wells of a microtiterplate (200 ul per well). The bacterial or yeast cell solutions were added in 10 ul volumes to give a final concentration of approximately 2×10^5 cells per ml. The concentration of the stock solution was always checked by viable counts. The microplate was incubated at 37° C. in a humid chamber for 2 h unless otherwise stated. Five ul were taken from each well and added as a drop onto a blood agar plate and incubated over night at 37° C. In some experiments more thorough viable counts were performed and the killing was expressed as remaining colony forming units in relation to the inoculum. The lower limit for detection of microorganisms was 200 CFU/ml.
(§3) L. gasseri survived better in the assay system than did L. jensenii. Undiluted lactate (5%) affected the survival of Lactobacillus.

L. jensenii = assay: Survival of L. jensenii in lactate with LF; settings: 2 mg/ml, lactate 0.2%, 2 h
Description: as §1, §2, §3

B1: rHLF: Recombinant human LF obtained from Agennix (protein, UniProt P02788 20-710, looked up)
Lactotransferrin: GRRRSVQWCAVSQPEATKCFQWQRNMRKVRGPPVSCIKRDSPIQCIQAIAENRADAVTLDGGFIYEAGLAPYKLRPVAAEVYGTERQPRTHYYAVAVVKKGGSFQLNELQGLKSCHTGLRRTAGWNVPIGTLRPFLNWTGPPEPIEAAVARFFSASCVPGADKGQFPNLCRLCAGTGENKCAFSSQEPYFSYSGAFKCLRDGAGDVAFIRESTVFEDLSDEAERDEYELLCPDNTRKPVDKFKDCHLARVPSHAVVARSVNGKEDAIWNLLRQAQEKFGKDKSPKFQLFGSPSGQKDLLFKDSAIGFSRVPPRIDSGLYLGSGYFTAIQNLRKSEEEVAARRARVVWCAVGEQELRKCNQWSGLSEGSVTCSSASTTEDCIALVLKGEADAMSLDGGYVYTAGKCGLVPVLAENYKSQQSSDPDPNCVDRPVEGYLAVAVVRRSDTSLTWNSVKGKKSCHTAVDRTAGWNIPMGLLFNQTGSCKFDEYFSQSCAPGSDPRSNLCALCIGDEQGENKCVPNSNERYYGYTGAFRCLAENAGDVAFVKDVTVLQNTDGNNNEAWAKDLKLADFALLCLDGKRKPVTEARSCHLAMAPNHAVVSRMDKVERLKQVLLHQQAKFGRNGSDCPDKFCLFQSETKNLLFNDNTECLARLHGKTTYEKYLGPQYVAGITNLKKCSTSPLLEACEFLRK
With B1 the “fungicidal effect on C. albicans, rHLF in comparison to LF” value (C. albicans (ATCC 64549); lactate 0.2%, 2 and 20 h) was “the stronger effect of rHLF was observed only after a longer incubation time”, the “fungicidal effect on C. albicans, rHLF in comparison to LF” value (C. albicans (ATCC 64549); lactate 1%, higher LF concentrations) was “stronger effect” and the “killing of the inoculate” value (C. albicans (ATCC 64549); rHLF 0.5-1.0 mg/ml, lactate 1%, 2 h) was roughly 99%. For the same molecule, the “killing of E. coli, rHLF compared with LF” value (E. coli 06) was “the most effective of the two LFs”, the “effect on L. gasseri survival beyond that of lactate” value (L. gasseri) was “no additional effects; also recorded: survived equally well” and the “resistance of L. jensenii to the antibacterial effect” value (L. jensenii) was “more resistant”.
